Measurements: patent US20060121580A1

Molecular target: inactivated SARS-CoV preparation (Frankfurt 1 strain), gamma-irradiated

Binder	OD492 nm [OD492 nm]
single-chain phage antibody SC03-012 (scFv) scFv: AMAQVQLVQSGAEVKKPGASVKVSCKASGYTFTSYGISWVRQAPGQGLEWMGWISAYNGNTNYAQKLQGRVTMTTDTSTSTAYMELSSLRSDDTAVYYCARMFRKSSFDSWGQGTLVTVSRGGGGSGGGGSGGGGSSELTQDPAVSVALGQTVRITCQGDSLRSYYASWYQQKPGQAPVLVIYGKNNRPSGIPDRFSGSSSGNTASLTITGAQAEDEADYYCNSRDSSGNHVVFGGGTKLTVLGAAA	0.495
single-chain phage antibody SC03-006 (scFv) scFv: SMAEVQLVESGGGLVQPGGSLRLSCAASGFTFSGYPMHWVRQAPGKGLEWVAVISYDGSNKYYADSVKGRFTISRDNSKNTLYLQMNSLRAEDTAVYYCAKDGSPRTPSFDYWGQGTLVTVLEGTGGSGGTGSGTGTSELDIQMTQSPHSLSASVGDRVTITCRASQGISNYLAWYQQKPGKVPKLLIYAASTLQSGVPSRFSGSGSGTDFTLTISSLQPEDVGVYYCQQRFRTPVTFGQGTKLEIKRAAA	1.06
single-chain phage antibody SC03-015 (scFv) scFv: AMAEVQLVESGGGVVRPGGSLRLSCAASGFTFDDYGMSWVRQAPGKGLEWVSGINWNGGSTGYADSVKGRFTISRDNAKNSLYLQMNSLRAEDTAVYYCARGLSLRPWGQGTLVTVSRGGGGSGGGGSGGGGSSELTQDPAVSVALGQTVRITCQGDSLRSYYASWYQQKPGQAPVLVIYGKNNRPSGIPDRFSGSSSGNTASLTITGAQAEDEADYYCNSRDSSGNHVVFGGGTKLTVLGAAA	0.796
